In publication PMC11643329, “DNA sequence-induced solid phase transition as a solution to the genome folding paradox” (Research Square, 2024):

T1: full length Halo-Ldb1 (Ldb1 1-411) (UniProt P70662 1-411, Halo-tag ligand Coumarin dye on the Halo tag (incubated at 1:10 molar equivalent))
T1 construct: Construct order as printed: 6x His - Halo tag - Ldb1 1-411 - stop codon in pET-duet; The EMSA legend says only 'full-length Ldb1'; This is the only full-length Ldb1 construct that the methods describe; also called full length Ldb1; FL Halo-Ldb1; source: E. coli BL21, purified (HisTrap, dialysis); not shown: Halo tag, N-terminal, kept
T1 sequence (looked up): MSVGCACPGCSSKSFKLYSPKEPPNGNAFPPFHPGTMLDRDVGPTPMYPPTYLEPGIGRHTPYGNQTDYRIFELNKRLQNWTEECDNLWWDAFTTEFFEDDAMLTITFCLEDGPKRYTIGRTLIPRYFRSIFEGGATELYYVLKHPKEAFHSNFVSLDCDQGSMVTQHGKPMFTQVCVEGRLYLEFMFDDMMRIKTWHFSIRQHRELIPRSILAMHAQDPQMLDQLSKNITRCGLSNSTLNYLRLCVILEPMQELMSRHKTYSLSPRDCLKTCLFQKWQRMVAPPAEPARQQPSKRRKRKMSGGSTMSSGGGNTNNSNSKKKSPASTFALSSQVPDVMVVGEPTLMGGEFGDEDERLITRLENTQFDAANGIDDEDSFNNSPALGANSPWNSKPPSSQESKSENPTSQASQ

B1: truncated Sumo-Lhx2 (Lhx2 1-350, lacks the C-terminal intrinsically disordered region) (domain or fragment, UniProt Q9Z0S2 1-350, looked up)
chain: MLFHSLSGPEVHGVIDEMDRRAKSEAPAISSAIDRGDTETTMPSISSDRAALCAGCGGKISDRYYLLAVDKQWHMRCLKCCECKLNLESELTCFSKDGSIYCKEDYYRRFSVQRCARCHLGISASEMVMRARDLVYHLNCFTCTTCNKMLTTGDHFGMKDSLVYCRLHFEALLQGEYPAHFNHADVAAAAAAAAAAKSAGLGSAGANPLGLPYYNGVGTVQKGRPRKRKSPGPGADLAAYNAALSCNENDAEHLDRDQPYPSSQKTKRMRTSFKHHQLRTMKSYFAINHNPDAKDLKQLAQKTGLTKRVLQVWFQNARAKFRRNLLRQENTGVDKTSDATLQTGTPSGPA
notes: Lhx2, LIM-homeodomain transcription factor, residues 1-350 followed by a stop codon; Construct order as printed: 6xHis - Sumo - strep II - Lhx2 in pET28b; also called truncated Lhx2; source: E. coli BL21, purified (HisTrap, HiTrap Heparin, dialysis); not shown: Sumo, N-terminal, kept

Assays:
[1] = molecular target: T1, full length Halo-Ldb1 (Ldb1 1-411); assay: native gel or EMSA; purified proteins mixed with 2000 fmol ATTO-488 labelled composite motif DNA probe; Ldb1 added to DNA-bound Lhx2 and/or Ebf1; 10 mM HEPES, 150 mM NaCl, 5% glycerol, 0.5% NP-40, 1 mg/mL BSA, 0.1 mg/mL poly dI-dC; 30 minutes at 4C; 6% native gel; settings: both partners purified
[2] = molecular target: B1; assay: as above; settings: both partners purified

binding result [1]	binding result [2]	Binder
binds		B1
	binds	Ldb1 Lim interaction domain (Ldb1-LID), Sumo-Ldb1 320-375 (domain or fragment, UniProt P70662 320-375, looked up, Construct order as printed: 6x His - Sumo - Ldb1 320-375 - stop codon in pET28; also called truncated Ldb1 protein; Sumo-Ldb1-LID domain; source: E. coli BL21, purified (HisTrap, Superdex 75 size exclusion); not shown: Sumo, N-terminal, kept) KKKSPASTFALSSQVPDVMVVGEPTLMGGEFGDEDERLITRLENTQFDAANGIDDE
